Results taken from patent US12698507B2, “Methods and compositions for conferring and/or enhancing herbicide tolerance using protoporphyrinogen IX oxidase of various cyanobacteria or variant thereof” (FarmHannong Co., Ltd., priority 2019, dated 2026).
Substitutions are numbered along the chain they refer to. In names and notes the source's numbering stands.

B1: CyPPO19 V305L + L327T + F360V: variant of CyPPO19 PPO protein (SEQ ID NO: 1) (protein)
chain: MSEVDVAIVGGGLSGLSLAWRLQQSAPQYSVVLLEASDRLGGNITTQTAEGFVWELGPNSFAPTPALLQLIAEVGLQSELIRGDRHLPRYIYWRGQLYPLQPTRPLALATSNLLSPWGKVRAALGALGFVPPYLGSGDESVNSFFRRHLGQEVAERLVAPFVSGVYAGDPQQLSAAAAFRRIAQLEKLGGGLIAGALHLRRQQAPKPKPPTSVQMRPGELGSFKEGLAALPRAIAQQLKAPIHLQTPVQEITPDPKGGYLLRSGEQTWRARSVVLATPAYQTAELVAPFQPAIARVLATIPYPTLACVVLAYPAGLGRSVRPGFGVTIPRSQGIRTLGTIWSSCLFPQRTPAGWQVFTSVIGGATDPDLASLSEEAIVQQVQQDLNRLLDLPAAKARLLGMKVWRRAIPQYMVGYPEQWQQVTHALSQTPGLFLCSNYAEGVALGDRVEHGNRTAAAVAAYLSGGQP
modifications: Synthetic_PPO of Thermosynechococcus elongatus PKUAC-SCTE542 (comprising GenBank No. CP032152.1)
B2: CyPPO19 V305L + I408R + F360L: variant of CyPPO19 PPO protein (SEQ ID NO: 1) (protein)
chain: B1 chain with T327L, V360L, I408R
modifications: Synthetic_PPO of Thermosynechococcus elongatus PKUAC-SCTE542 (comprising GenBank No. CP032152.1)
B3: CyPPO19 V305M + L327T + F360T: variant of CyPPO19 PPO protein (SEQ ID NO: 1) (protein)
chain: B1 chain with L305M, V360T
modifications: Synthetic_PPO of Thermosynechococcus elongatus PKUAC-SCTE542 (comprising GenBank No. CP032152.1)
B4: CyPPO19 V305M + I408W + F360V: variant of CyPPO19 PPO protein (SEQ ID NO: 1) (protein)
chain: B1 chain with L305M, T327L, I408W
modifications: Synthetic_PPO of Thermosynechococcus elongatus PKUAC-SCTE542 (comprising GenBank No. CP032152.1)
B5: CyPPO19 V305M + I408W + F360I: variant of CyPPO19 PPO protein (SEQ ID NO: 1) (protein)
chain: B1 chain with L305M, T327L, V360I, I408W
modifications: Synthetic_PPO of Thermosynechococcus elongatus PKUAC-SCTE542 (comprising GenBank No. CP032152.1)
B6: CyPPO19 L327T + I408R + F360M: variant of CyPPO19 PPO protein (SEQ ID NO: 1) (protein)
chain: B1 chain with L305V, V360M, I408R
modifications: Synthetic_PPO of Thermosynechococcus elongatus PKUAC-SCTE542 (comprising GenBank No. CP032152.1)

Test system: PPO-deficient BT3 E. coli (ΔPPO)
Experiment: PPO-inhibiting herbicide tolerance test of PPO variants in E. coli (growth on herbicide-containing LB agar)
Format: cell-based
Conditions: CyPPO19 variants in BT3 (ΔPPO) E. coli; LB agar with 0 to 2,000 μM herbicide, 37° C., dark, 16-20 hours
Method in brief: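 PPO-deficient BT3 E. coli expressing each variant from pET303 were diluted to OD600=0.5, then 10-fold serially, and spotted on LB-ampicillin agar with 0 to 2,000 μM herbicide. After 16-20 h at 37° C. in the dark, growth relative to wild type was scored from '−' (equivalent) to '+' per 10-fold resistance, max '+++++'.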

Molecule | tolerance level relative to wild type, Carfentrazone | tolerance level relative to wild type, Flumioxazin | tolerance level relative to wild type, Fomesafen | tolerance level relative to wild type, Oxyfluorfen | tolerance level relative to wild type, Saflufenacil | tolerance level relative to wild type, Sulfentrazone | tolerance level relative to wild type, Tiafenacil
B1 | + (‘+’ per each 10-fold resistance) | +++++ (until ‘+++++’ as maximal resistance) | + (‘+’ per each 10-fold resistance) | +++ (‘+’ per each 10-fold resistance) | +++ (‘+’ per each 10-fold resistance) | ++ (‘+’ per each 10-fold resistance) | +++++ (until ‘+++++’ as maximal resistance)
B2 | + (‘+’ per each 10-fold resistance) | ++++ (‘+’ per each 10-fold resistance) | + (‘+’ per each 10-fold resistance) | ++ (‘+’ per each 10-fold resistance) | +++++ (until ‘+++++’ as maximal resistance) | ++ (‘+’ per each 10-fold resistance) | +++++ (until ‘+++++’ as maximal resistance)
B3 | + (‘+’ per each 10-fold resistance) | +++ (‘+’ per each 10-fold resistance) | ++ (‘+’ per each 10-fold resistance) | ++ (‘+’ per each 10-fold resistance) | +++ (‘+’ per each 10-fold resistance) | +++ (‘+’ per each 10-fold resistance) | +++ (‘+’ per each 10-fold resistance)
B4 | + (‘+’ per each 10-fold resistance) | +++++ (until ‘+++++’ as maximal resistance) | +++ (‘+’ per each 10-fold resistance) | +++ (‘+’ per each 10-fold resistance) | +++++ (until ‘+++++’ as maximal resistance) | ++++ (‘+’ per each 10-fold resistance) | +++++ (until ‘+++++’ as maximal resistance)
B5 | + (‘+’ per each 10-fold resistance) | +++++ (until ‘+++++’ as maximal resistance) | +++ (‘+’ per each 10-fold resistance) | +++ (‘+’ per each 10-fold resistance) | +++++ (until ‘+++++’ as maximal resistance) | +++ (‘+’ per each 10-fold resistance) | +++++ (until ‘+++++’ as maximal resistance)
B6 | + (‘+’ per each 10-fold resistance) | +++++ (until ‘+++++’ as maximal resistance) | ++ (‘+’ per each 10-fold resistance) | +++ (‘+’ per each 10-fold resistance) | +++ (‘+’ per each 10-fold resistance) | + (‘+’ per each 10-fold resistance) | +++++ (until ‘+++++’ as maximal resistance)
